Measured values taken from US6534640B1, “Methods and compositions to alter the cell surface expression of phosphatidylserine and other clot-promoting plasma membrane phospholipids” (Blood Center Research Foundation, priority 1996, dated 2003).
“Also recorded” adds a separate entry of the source. One block for each molecule: values may come before it.

What was measured:
PL scramblase [1] = molecular target: T1, PL scramblase (Homo sapiens, UniProt O15162); settings: cited from earlier work
T1 sequence (O15162 1-318): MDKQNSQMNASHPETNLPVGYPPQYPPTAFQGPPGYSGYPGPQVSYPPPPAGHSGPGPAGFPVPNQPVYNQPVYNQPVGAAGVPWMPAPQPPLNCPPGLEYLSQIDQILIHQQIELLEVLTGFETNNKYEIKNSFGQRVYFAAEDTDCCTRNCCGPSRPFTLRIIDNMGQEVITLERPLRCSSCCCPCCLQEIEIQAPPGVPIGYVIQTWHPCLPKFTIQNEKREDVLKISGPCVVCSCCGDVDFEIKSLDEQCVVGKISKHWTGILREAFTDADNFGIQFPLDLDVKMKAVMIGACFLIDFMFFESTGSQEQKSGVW

[2] = molecular target: T2, human erythrocyte PL scramblase (Homo sapiens, UniProt O15162); test: Treatment with hydroxylamine, then reconstitution into proteoliposomes and PL scramblase activity assay (NBD-PC); type: biochemical; settings: 1 M hydroxylamine, 1 hour, room temperature, neutral pH; assay in 2 mM Ca2+, 3 hours
T2 construct: PL scramblase purified from human erythrocytes; from tissue; host or cells: human erythrocyte ghost membranes
T2 sequence (O15162 1-318): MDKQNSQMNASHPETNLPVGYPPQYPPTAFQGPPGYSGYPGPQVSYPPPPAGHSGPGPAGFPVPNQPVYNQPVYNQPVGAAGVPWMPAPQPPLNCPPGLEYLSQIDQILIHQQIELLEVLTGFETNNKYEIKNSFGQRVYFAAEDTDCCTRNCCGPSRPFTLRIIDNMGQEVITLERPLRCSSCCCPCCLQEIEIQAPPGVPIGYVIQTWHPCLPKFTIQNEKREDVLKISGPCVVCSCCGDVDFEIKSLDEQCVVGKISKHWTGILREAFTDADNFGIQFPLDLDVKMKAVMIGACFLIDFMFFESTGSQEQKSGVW
Procedure: Treatment with Hydroxylamine. PL scramblase was incubated 1 hour room temperature in 1 M hydroxylamine, 25 mM octylglucoside, 1 M Tris-HCl at pH 7.4. Match control samples of the protein were identically incubated under these conditions, omitting hydroxylamine. After incubation, samples were dialyzed and reconstituted into PL proteoliposomes for assay of PL scramblase activity.
Membrane reconstitution and assay. PL scramblase was reconstituted into proteliposomes and activity determined as previously described(F. Bassé, et al., supra, 1996; J. G. Stout, et al, supra, 1997).
FIG. 11 illustrates inactivation of PL scramblase by hydroxylamine. Purified human erythrocyte PL scramblase was incubated 1 hour, room temperature, in the presence of 50 mM octylglucoside, 1M TrisHCl, and either 0 (control) or 1M (hydroxylamine) hydroxylamine at pH 7.2. Untreated refers to sample maintained in low ionic strength sample buffer at 4° C. . Each sample was then dialyzed and reconstituted into proteoliposomes for assay of PL scramblase activity using NBD-PC as detailed in Bassé, et al., supra, 1996 with modifications of Stout, et al., supra, 1997. Ordinate indicates percent of total NBD-PC flipped during 3 hours. Incubation was in 2 mM Ca^2+, with correction for background measured in 0.1 mM EGTA. The error bars denote mean±SD, n=7. Combined data of three independent experiments performed on different days.

Raji cells = test: Prothrombinase assay of transfected Raji cells; type: cell-based, human; settings: transformed Raji cells, 2 μM A23187, vs clones expressing GFP alone
Procedure: Prothrombinase Assay. Prothrombinase activity of Raji cells was determined by modification of methods previously described for platelets, using the chromogenic thrombin substrate S2238 (P. J. Sims, et al., supra, 1988). Briefly, 1×10^5 Raji cells (transfected with either pEGFP-C2 or pEGFP-C2-PL scramblase) were suspended in 200 μl HBSS containing 1% BSA in the presence of 2 nM FVa, 1.4 μM prothrombin 2.5 mM CaCl2, and 4 μM dansylarginine-N-(3-ethyl-1,5-pentanediyl)amide (to inhibit feed-back activation by thrombin), and incubated at 37° C. Ca^2+-ionophore A23187 (2 μM), or DMSO (as solvent control) was added, and prothrombin conversion was initiated by addition of 2 nM Fxa. Thrombin generation was stopped after 2 minutes by dilution into 10 mM EGTA and samples were stored on ice. Aliquots were transferred to a 96-well plate, and thrombin generated was assayed in TBS containing 1% BSA in presence of 150 μM S2238 by monitoring time-dependent changes in absorbance at 405 nm using a Thermomax plate reader (Molecular Devices, Sunnyvale, Calif.). Thrombin activity was calculated using purified thrombin as standard.

PL scramblase [3] = molecular target: T1, PL scramblase; test: PL scramblase activity: Ca2+-dependent transbilayer movement of NBD-PC in reconstituted PC/PS proteoliposomes; type: biochemical; design: PCR was performed on a full-length clone using the primers; made in house; host or cells: E. coli TB1 (pMAL-C2)
Procedure: Reconstitution of PL scramblase or scramblase fusion protein into proteoliposomes. Reconstitution and functional activity were performed essentially as previously described (F. Bassé, et al., J. Biol. Chem. 271:17205-17210, 1996; J. G. Stout, et al., J. Clin. Invest. 99:2232-2238, 1997). Briefly, a mixture of PC and PS (9:1 molar ratio) was dried under a stream of nitrogen and resuspended in 100 mM Tris, 100 mM KCl, 0.1 mM EGTA, pH 7.4 (Tris buffer). Protein samples to be reconstituted were added to the liposomes at a final lipid concentration of 4 mg/ml in the presence of 60 mM OG, and dialyzed overnight at 4° C. against 200 vol of Tris buffer containing 1 g/L Bio-Beads SM-2. To liberate PL scramblase from MBP, the proteoliposomes were incubated 3 h at room temperature in the presence of 1/40 (w/w) factor Xa. The digestion was terminated by addition of 100 μM Glu-Gly-Arg chloromethyl ketone. Completeness of the digest was monitored by SDS-PAGE. […]
PL Scramblase activity. Scramblase activity was measured as previously described (F. Bassé, et al., supra, 1996; J. G. Stout, et al., supra, 1997 and in U.S. Ser. No. 08/790,186). […] Proteoliposomes were diluted 25-fold in Tris buffer containing 4 mM EGTA and transferred to a stirred fluorescence cuvet at 23° C. Initial fluorescence was recorded (SLM Aminco 8000 spectrof luorimeter; excitation at 470 nm, emission at 532 nm), 20 mM dithionite was added, and the fluorescence continuously monitored for a total of 120 seconds. The difference in non-quenchable fluorescence observed in presence vs. absence of CaCl2 Was attributed to Ca^2+-induced change in NBD-PC located in the outer leaflet (F. Bassé, et al., supra, 1996; J. G. Stout, et al., supra, 1997; J. C. McIntyre and R.G. Sleight, Biochemistry 30:11819-11827, 1991). Ionized [Ca^2+] was calculated using FreeCal version 4.0 software (generously provided by Dr. Lawrence F. Brass, University of Pennsylvania, Philadelphia, Pa.). […]

Molecule: O[C@H](CS)[C@H](O)CS (racemic) [dithiothreitol]
PL scramblase activity after incubation in reducing agents (PL scramblase [1]): retention of normal PL scramblase activity

Molecule: NO [hydroxylamine]
PL scramblase activity after incubation with hydroxylamine [2]: near complete loss; also recorded: nearly complete inactivation

specific PL mobilizing activity relative to the endogenous protein purified from the erythrocyte membrane (PL scramblase [3]; expressed and purified from E. coli, reconstituted in proteoliposomes): approximately 50%
B1: recombinant PL scramblase: Recombinant human PL scramblase (SEQ ID NO:2) expressed in E. coli as MBP fusion, liberated by factor Xa (protein, listed as Homo sapiens)
chain: MDKQNSQMNASHPETNLPVGYPPQYPPTAFQGPPGYSGYPGPQVSYPPPPAGHSGPGPAGFPVPNQPVYNQPVYNQPVGAAGVPWMPAPQPPLNCPPGLEYLSQIDQILIHQQIELLEVLTGFETNNKYEIKNSFGQRVYFAAEDTDCCTRNCCGPSRPFTLRIIDNMGQEVITLERPLRCSSCCCPCCLQEIEIQAPPGVPIGYVIQTWHPCLPKFTIQNEKREDVLKISGPCVVCSCCGDVDFEIKSLDEQCVVGKISKHWTGILREAFTDADNFGIQFPLDLDVKMKAVMIGACFLIDFMFFESTGSQEQKSGVW
cell capacity to catalyze the prothrombinase reaction upon entry of calcium into the cytosol (Raji cells): increase | PL scramblase activity (PL scramblase [3]; 2 mM CaCl2, mean±SD of three measurements): 11.76±0.44 % of total NBD-PC flipped | Ca2+-dependent PL scramblase activity (transbilayer movement of NBD-PC) in liposomes (PL scramblase [3]; PC/PS liposomes, absence or presence of 2 mM CaCl2): PL scramblase activity was observed
